B1: library; numbered along this chain (parent)
chain: MAAAAAAAAEQQSSNGPVKKSMREKAVERRSVNKEHNSNFKAGYIPIDEDRLHKTGLRGRKGNLAICVIILLFILAVINLIITLVIWAVIRIGPNGCDSMEFHESGLLRFKQVSDMGVIHPLYKSTVGGRRNENLVITGNNQPIVFQQGTTKLSVENNKTSITSDIGMQFFDPRTQNILFSTDYETHEFHLPSGVKSLNVQKASTERITSNATSDLNIKVDGRAIVRGNEGVFIMGKTIEFHMGGNMELKAENSIILNGSVMVSTTRLPSSSSGDQLGSGDWVRYKLCMCADGTLFKVQVTSQNMGCQISDNPCGNTH

Variants of: B1
Test: SGCB cell-surface expression functional score (HA stain, bin4 vs bin1, normalised to synonymous) (log10 ratio); higher = more cell-surface SGCB (functional)
Outline: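 Using lentivirus at MOI <0.1, HA-tagged, YFP-fused human beta-sarcoglycan codon-saturation libraries were put into HEK293 cells with stable alpha-, gamma- and delta-sarcoglycan expression, in duplicate transductions. YFP-positive cells were collected by sorting 72 hours later, grown 5–7 days, stained on ice with Alexa Fluor 647 anti-HA, fixed, sorted into four 5% intensity bins and amplicon-sequenced. The functional score takes the median, across codons and transductions, of the log ratio of highest-bin to lowest-bin variant frequency. Within each section, synonymous variants were scaled to mean 0, SD 0.5.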

SGCB cell-surface expression functional score (log10) of substitutions, site by site:
A291: C -0.42 | K -0.46 | Y 0.25 | Q -0.72 | P 0.02 | S -0.06 | N 0.17 | H -0.89 | F 0.25 | L -0.71 | D -0.71 | W -1.18 | E -0.98 | I -0.64 | M -2.2 | T 0.17 | R 0.01 | V -0.85 | G -0.19
F296: H -0.39 | E -1.06 | L -0.05 | T -0.42 | P -0.5 | I 0.21 | S -0.26 | Y 0.25 | M -0.13 | W 0.16 | A -0.24 | K -1.28 | Q -0.65 | N -0.63 | G -0.62 | R -0.46 | D -0.42 | C -0.18 | V -0.33
M289: Q -1.35 | P -1.06 | R -0.22 | G -1.37 | A -1 | C -0.54 | Y 0.01 | S -0.79 | D -0.92 | L -0.19 | W -1.6 | F -1.2 | H -0.85 | T -0.81 | K -0.23 | N 0.11 | V -0.24 | E 0.05 | I 0.1
C290: W 0.07 | G -0.08 | R -0.56 | Q -0.2 | D 0.2 | N -0.11 | L -0.51 | H -0.47 | I 0.02 | E 0.01 | K -0.15 | V -0.97 | A -0.08 | S -0.53 | Y -0.57 | P -1.32 | M -0.16 | F -0.75 | T -0.17
C288: H -1 | M -1.54 | G -0.27 | V -0.72 | D 0.01 | K -1.15 | P -0.81 | S -0.07 | L -0.83 | T -0.27 | Y -0.01 | N -0.51 | A -0.03 | W -0.68 | F -0.71 | R -0.93 | E 0.01 | I -0.55 | Q -0.16
R284: N -2.05 | K -0.73 | F -0.51 | Q 0.05 | S -0.16 | D -1.55 | E -1.26 | M 0.28 | Y 0.27 | A 0.33 | W 0.31 | P -0.73 | H 0.16 | I -0.39 | G -0.11 | L -0.57 | V -1.16 | T -0.97 | C 0.03
K297: V -0.02 | W -1.48 | D 0.03 | G -0.21 | Q -0.3 | P 0.02 | C -0.07 | H -0.02 | Y -0.13 | S -0.17 | E 0.15 | F -0.47 | A -0.41 | N 0.46 | M 0.17 | L -0.43 | T -0.16 | R 0.25 | I -0.54
D292: T -0.67 | G -0.42 | Q -1.17 | H -0.19 | S -0.12 | I 0.06 | M 0.17 | V -0.08 | Y -0.33 | K -0.24 | P -0.16 | W -2.02 | L 0.07 | F -0.23 | A -0.14 | C 0.07 | E 0.1 | N -0.13 | R -1.29
G293: R -0.02 | T 0.13 | D 0.2 | L -0.36 | N 0.21 | Q 0.3 | C 0.03 | M -0.11 | A -0.12 | F -0.08 | V -0.73 | Y -0.17 | H 0.14 | P -0.23 | W -0.35 | K -0.71 | I -0.08 | S -0.48 | E 0.05
T294: R -0.13 | E -0.33 | A 0.08 | V 0.14 | N 0.12 | Y -0.33 | C -0.97 | H -0.74 | M 0.19 | W 0.57 | F 0.01 | I -0.04 | G 0.5 | P 0.04 | K -0.03 | D 0.14 | Q 0.06 | S 0.17 | L 0.29
L295: T 0.03 | M -0.78 | F -0.18 | V -0.12 | H -0.62 | R -0.52 | Y -0.02 | P -0.13 | N -1.17 | Q -0.13 | C -0.2 | A -0.91 | G -0.87 | E -0.95 | D -1.13 | K -0.07 | S -0.42 | W -1.84 | I 0.11
W282: Y -0.08 | M -0.29 | Q 0.08 | N 0.08 | R 0.12 | T -0.1 | S -0.06 | V 0.04 | P 0.15
V298: Y -1.36 | H -0.85 | F -1.04 | W 0.29 | T -0.74 | L -0.21 | D -0.58 | A -0.24 | K 0.19 | C 0.01 | M 0.21 | S -0.15 | N -0.06 | R -0.21 | G -0.37 | E 0.17 | Q -1.06 | I 0.1 | P -0.53
K286: N -0.03 | V 0.03 | Y -0.08 | I -0.67 | R -1 | C -1.06 | E -0.77 | T -1.08 | W -0.09 | G -0.81 | S -1.02 | F -0.07 | M 0.29 | H -1.12 | A -0.54 | P 0.02 | D -1.17 | Q -0.61 | L -0.42
L287: I 0.07 | T -0.72 | H -0.31 | C 0.06 | Y -0.22 | P 0.16 | K -0.59 | W -1.34 | V -0.04 | G -0.84 | Q -1.3 | D -0.88 | A -0.96 | N -2.02 | F -0.14 | S -1.02 | M -2.09 | E -0.2 | R -1.38
Y285: D -0.09 | T -1.86 | E -2.12 | W 0.09 | F -0.2 | I -1.22 | P -0.24 | C -0.68 | R -1.05 | M -2.09 | K -0.76 | V -0.66 | L -0.66 | H -0.04 | S -0.49 | G -0.29 | A -0.68 | N -0.74 | Q -0.54
V300: C -0.27 | A -0.02
V283: S -0.34 | M 0.74 | A -0.15 | R -0.21 | D -0.63 | K 0.04 | N 0.35 | P -0.19 | Y -0.55 | I 0.38 | T -0.38 | W -1.26 | Q -0.56 | L 0.37 | H -0.24 | F -0.17 | E 0.19 | G 0.12 | C 0.36
Q299: W 0.13 | A 0.08 | H -0.17 | V 0.01 | E 0.61 | F -0.05 | T 0.05 | G -0.02 | M -0.25 | S 0.08 | N 0.04 | D 0.16 | K 0.21 | C -1.36 | I 0.37 | R 0 | P -0.01 | L -0.23 | Y -0.66

Source: the supplement of paper PMC10266784
